19 sequences from the DeepSol protein solubility set can be followed below.

A short description of the series: soluble on expression in E. coli; label from the status in PepcDB or PDB records.
“MAKAKAAPKKSVKKVEKSPSPEDSGIRRSGRQRIEMGKYEEGFDRHELEMVLRASLNEANQQGIKVPSTSSTASASAPAPVKKEIKPKNKPAPVPVVEKKRTIPSKKERDAERKALAAAAAAAATLTSMKKAPIKKSVPSTSSEADSTTPKKKGSAVKAKKVTIKTPSSEPAELTSSAAPVPVAVPEVPTAEATTSATTTPTTTNATIVKKEETKAEQPVKKVVKKKAISKKPPTTTNVTSTSDSSAAAAAAKKKKKPVVPKLSTKPTKQYLENEKQMRLMATQKCTYKEPKSLEKRIYFIPFYSLKLAKKNDQISYLNLISFIHKNLFFNF”: the “soluble on expression in E. coli” value is given as “soluble”.

Take “MGSDKIHHHHHHMRIQQLHYIIKIVECGSMNEAAKQLFITQPSLSNAVKDLEMEMGITIFNRNPKGITLTKDGVEFLSYARQIIEQTSLLEDRYKNHNTGRELFSVSSQHYAFVVNAFVSLLKRTDMTRYELFLRETRTWEIIDDVKNFRSEIGVLFINDYNRDVLTKLFDDNHLTASPLFKAQPHIFVSKSNPLATKSLLSMDDLRDFPYLSYDQGIHNSFYFSEEMMSQMPHNKSIVVSDRATLFNLMIGLDGYTVASGILNSNLNGDQIVAIPLDVPDEIDIVFIKHEKANLSKMGERFIEYLLEEVTFD”: the “soluble on expression in E. coli” value is given as “not soluble”. In the case of “MIETEKKEERVLLIGVELQGMDSFDLSMEELASLAKTAGAVVVDSYRQKREKYDSKTFVGSGKLEEIALMVDAEEITTVIVNNRLTPRQNVNLEEVLGVKVIDRMQLILDIFAMRARSHEGKLQVHLAQLKYLLPRLVGQGIMLSRQAGGIGSRGPGESQLELNRRSVRNQITDIERQLKVVEKNRATVREKRLESSTFKIGLIGYTNAGKSTIMNILTSKTQYEADELFATLDATTKSIHLGGNLQVTLTDTVGFIQDLPTELVSSFKSTLEESKHVDLLVHVIDASNPYHEEHEKTVLSIMKDLDMEDIPHLTLYNKADLVEDFTPTQTPYTLISAKSEDSRENLQALLLDKIKEIFEAFTLRVPFSKSYKIHDLESVAILEERDYQEDGEVITGYISEKNKWRLEEFYDLEHHHHHH”, the “soluble on expression in E. coli” value is “not soluble”. Then “MSLEKLNLICVDDQREVLSAVLQDLEPLNKWLNIEDCESADEVLELMDELDADGEMIALIISDHVMPGKTGVELLTEISKDSRFVRTRKVLLTGQATHTDTINAINSAGIDRYFEKPWQANQLIECVRNLVTQYIFDEGHHHHHH”, with “not soluble”; and “MGSDKIHHHHHHMLEFPALRPFLWSGRYNRPLMPLTYLTRIAQTPAPTFQEEARAELIARLWSDLGYVTERDEVGNVLTRITPPGTEGRPALLLAAHLDTVFGGQTDVTVHDEGQRLRGPGVGDNSASLAVVTAMLRDFRTAPPLLRRPLWVAANVGEEGLGDLRGAKHLLAAHRPQLGAFVAVDGYLGVAVTQAVGVRRYRAQFVGPGGHSWGDQAPSALHALGLAISGLYALHLPAQPRTTLNVGTAAGGNSVNSIAGQAELLLDLRSLGADELAALDSRAQDVLHRAARDAGVSLRLERVGDRPGGDLHTGALLGMAHAAAREVRVDLRLAASSTDANAAAPHVLPALAFGVYRGGNAHREDEWVEKRSLAPGLTALKRLVALYQAAPLA”, with “not soluble”. Then “MMYFISDTHFYHENIINLNPEVRFKGFEIVILTNLLKVLKPEDTLYHLGDFTWHFNDKNEYLRIWKALPGRKILVMGNHDKDKESLKEYFDEIYDFYKIIEHKGKRILLSHYPAKDPITERYPDRQEMVREIYFKENCDLLIHGHVHWNREGIKCACKDYRIECINANVEWNDYKPISEREIDKLISYEKAKN”, with “soluble”. Consider “MIILMSKPLSEKKTSNNISDLIYGLLKEDIFNFVLKPGQRFTETDLSERYEASRTPIRQALYRLEQEGFVHVHFRSGWEIRPLEFKYYQELFDLRMILEKEAVKRLCELEHPEQLPALIELKKMWLIAPVDYLTDTKTLVLQSEDFHCALVRAAGNQQIAKIHQEASEKIRIVLSLGAMKEFDIAHAYQDHGAILQCILNKDAEQAIHLAEHHVLESIHEVKNITLQMISAIH”, for which the “soluble on expression in E. coli” value is on record as “not soluble”. Then “QLGMKGYADTIDRQRMQTQAQFVLEKMSREIRHAVPNSFHVPTGSTNCLEFMPIEYSGFYTLTNNNLEFLLGNDSTLNPIPADRWMVINPSRYEDLQSASPQSLAVGNLAKTGD”, with “not soluble”; and “MIAMAQQDVKPTRSELINLKKKIKLSESGHKLLKMKRDGLILEFFKILNEARNVRTELDAAFAKSTEKINLASAVNGMVAVRSTAFTAKESPEIQLSGHNIMGVVVPKISSTGVRKSLYERGYGIIGTNSYIDETADAYEDLVEKIITAAELETTMKRLLDEIEKTKRRVNALEFKVIPELIDTMKYIRFMLEEMERENTFRLKRVKARMRDLEHHHHHH”, with “not soluble”; and “KLKNYKTSELMIQSSNNYKLESLFITSNIKTRDTMILVHGIGSSYYEMLKVAYRYLDKGYNVLVYNQRNTGNSGGDNYTFGLYERYDLDSLVKFVKNKFPEGRLGVHGFSMGAGTAAMHSEINSKDDKVDFYILDSPYSEMKDAIRMGVLEKRIPDILINYVVTCGDLYNKFKSGFWYSDVKPYESVEKSNVPILFIHGTKDTVCNYQNSKKMYDLVKHDKKDLWLIEGIGHVDGFEHDSTVYFNKIFKFIDSNVLSDKS”, with “not soluble”. Then “MMTKYGVVGTGYFGAELARFMSKVEGAKITAIYDPVNAAPIAKELNCVATATMEALCSHPDVDCVIIASPNYLHKAPVIAAAKAGKHVFCEKPIALNYQDCKDMVDACKEAGVTFMAGHVMNFFHGVRHAKALIKAGEIGEVTQVHTKRNGFEDVQDEISWKKIRAKSGGHLYHHIHELDCTLFIMDETPSLVSMAAGNVAHKGEKFGDEDDVVLITLEFESGRFATLQWGSSFHYPEHYVLIEGTTGAILIDMQNTAGYLIKAGKKTHFLVHESQAEDDDRRNGNISSEMDGAIAYGKPGKRTPMWLSSIMKLEMQYLHDVINGLEPGEEFAKLLTGEAATNAIATADAATLSSNEGRKVKLTEILGLEHHHHHH”, with “soluble”; and “MTNLVDKAAHSFATQNVVFQTLATASGKLVGVVTLNVEKALNALDLDMVRAMTVQLNLWKKDPLIACVVLDGSGEKAFCAGGDVRALYHASVAAKGQVTEVAKVFFEEEYRLDYLLHTYGKPVLVWGDGIVMGGGLGLMAGASHKVVTETSRIAMPEVTIGLYPDVGGSYFLNRMPGKMGLFLGLTAYHMNAADACYVGLADHYLNRDDKELMFDAMATLDWSDSPALNHQRLDTMINELSNQVDIPKGDSVLAESQEMIDRLMAGSLTDIVTRMSTLSTDEAWLSKACATMLAGSPISWHLAYIQTQLGTKLSLAQCFKWELTVSVNVCAKGDFCEGVRALLIDKDKQPKWQFADVQSVPNSVIEDILTSPWGEEHPLSQLS”, with “soluble”.

As for “MGHHHHHHSHMKRSLSENSARSTADWAWEAVNPELAPVMKTVDTGQIPHSVSRPLRSQDSVFNSIQSNTGRSQGGWSYRDGNKNTSLKTWNKNDFKPQCKRTNLVANDGKNSCPVSSGAQQQKQLRIPEPPNLSRNKETELLRQTHSSKISGCTMRGLDKNSALQTLKPNFQQNQYKKQMLDDIPEDNTLKETSLYQLQFKEKASSLRIISAVIESMKYWREHAQKTVLLFEVLAVLDSAVTPGPYYSKTFLMRDGKNTLPCVFYEIDRELPRLIRGRVHRCVGNYDQKKNIFQCVSVRPASVSEQKTFQAFVKIADVEMQYYINVMNET”, the “soluble on expression in E. coli” value was “not soluble”. Then “MGSDKIHHHHHHMLAFAARTVVKPLGLLKPSSLMKVSGRFKAHQDALPRLPVPPLQQSLDYYLKALQPIVSEEEWAHTKQLVDEFQTSGGVGERLQKGLERRAKKMENWLSEWWLKTAYLQFRQPVVIYSSPGVILPKQDFVDLQGQLRFAAKLIEGVLDFKSMIDNETLPVEFLGGQPLCMNQYYQILSSCRVPGPKQDSVVNFLKSKRPPTHITVVHNYQFFELDVYHSDGTPLTSDQIFVQLEKIWNSSLQSNKEPVGILTSNHRNTWAKAYNNLIKDKVNRESVNSIQKSIFTVCLDKQVPRVSDDVYRNHVAGQMLHGGGSKFNSGNRWFDKTLQFIVAEDGSCGMVYEHAAAEGPPIVALVDHVMEYTKKPELVRSPMVPLPMPKKLRFNITPEIKNDIEKAKQNLSIMIQDLDIMMLTFHHFGKDFPKSEKLSPDAFIQVALQLAYYRIYGQACATYESASLRMFHLGRTDTIRSASIDSLAFVKGMGDSTVPEQQKVELLRKAVQAHRAYTDRAIRGEAFDRHLLGLKLQAIEDLVSMPDIFMDTSYAIAMHFNLSTSQVPAKTDCVMFFGPVVPDGYGICYNPMEAHINFSVSAYNSCAETNAARMAHYLEKALLDMRTLLQNHPRAKL”, with “not soluble”; and “MGSDKIHHHHHHMKVKAPGRINIIGEHTDYNDGYVLPFAVNRYVFLSIEGSERFIFHSENVNETVEMEKIEKLNKWTDYISGVIASFEKRGYRVSPVKISVSSNLPIGAGLSSSAALEVATAYAISEYFGFNVPKLELVKIAREAEVEFVGVRCGIMDQFTAVFGKKDHAIFLDTMTLEYEYVPLKLEGYEINLVDSNVKHELSSSEYNRRRQECEEVLKTLEKKSFREVTKEDLERLSGTLRKRAQHVLEENERVLKSVQALKEGDFETLGKLLFSSHESLRDLYEVSCEETDFIVDYLRGKEGILGARMVGGGFGGGVIVLSKKGAFGKIKEELVESYRKRFGIDLIFHEIESSDGVQKI”, with “not soluble”. The entry for “MGSDKIHHHHHHMINLKELKILHTSDWHLGVTSWTSSRPVDRREELKKALDKVVEEAEKREVDLILLTGDLLHSRNNPSVVALHDLLDYLKRMMRTAPVVVLPGNHDWKGLKLFGNFVTSISSDITFVMSFEPVDVEAKRGQKVRILPFPYPDESEALRKNEGDFRFFLESRLNKLYEEALKKEDFAIFMGHFTVEGLAGYAGIEQGREIIINRALIPSVVDYAALGHIHSFREIQKQPLTIYPGSLIRIDFGEEADEKGAVFVELKRGEPPRYERIDASPLPLKTLYYKKIDTSALKSIRDFCRNFPGYVRVVYEEDSGILPDLMGEIDNLVKIERKSRREIEEVLRESPEEFKEELDKLDYFELFKEYLKKREENHEKLLKILDELLDEVKKSEA” is “not soluble”; for “MGSDKIHHHHHHMKKKNVIVFGGGTGLSVLLRGLKTFPVSITAIVTVADDGGSSGRLRKELDIPPPGDVRNVLVALSEVEPLLEQLFQHRFENGNGLSGHSLGNLLLAGMTSITGDFARGISEMSKVLNVRGKVLPASNRSIILHGEMEDGTIVTGESSIPKAGKKIKRVFLTPKDTKPLREGLEAIRKADVIVIGPGSLYTSVLPNLLVPGICEAIKQSTARKVYICNVMTQNGETDGYTASDHLQAIMDHCGVGIVDDILVHGEPISDTVKAKYAKEKAEPVIVDEHKLKALGVGTISDYFVLEQDDVLRHNASKVSEAILEGKPRTSSSIQ” it is “not soluble”; for “ASIPEGTDKNAPLTSIPGYIPNMLSPPKGDAFAARNQFALAIDFEHQPPFFDVTETHKAATWLLHPQAPKVEMPADVKEKIAITRKALAIKMPSQPVKQPKSNGNKKTKTKSAR” it is “soluble”.

Turning to “MVLRRDFLTWCNETLQTALFKDYAPNGLQVEGREYIGKIVTSVTASRAAIDFAVEQKADLLLVHHGMFWKNELPTVTGWKKERIAALLRHDINMAGYHLPLDAHPTLGNNAQLADRLGFATEKRFGEQNLLNSGSLKQAKTLGALAAHIETVLQRKPVVIGKPEREIRRVAWCSGGAQGFFQTAIDEGVDLYLTGEISEAQYHLANETGTAFISAGHHATERYGVRALAESAAEVFGLEVCHFDENNPALEHHHHHH”, the “soluble on expression in E. coli” value is recorded as “soluble”.
